For assay [1], the target named is T1, hFcγR2B (human, UniProt P31994 46-217, tagged with biotin or histidine (which one is not stated for this receptor)).
T1 sequence (looked up): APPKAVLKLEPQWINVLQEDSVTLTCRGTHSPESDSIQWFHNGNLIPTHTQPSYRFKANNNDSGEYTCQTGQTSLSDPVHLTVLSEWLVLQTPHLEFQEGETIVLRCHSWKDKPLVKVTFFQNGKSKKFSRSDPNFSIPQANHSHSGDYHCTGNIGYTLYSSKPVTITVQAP
The assay is described as follows: BLI.

Assay [2] deals with T2, hFcγR3A 176V (human, UniProt P08637 17-208, tagged with biotin or histidine (which one is not stated for this receptor)). The assay is described as follows: BLI. In general terms: In BLI a coated tip is dipped into the sample, and binding shifts an interference pattern.
T2 sequence (P08637 17-208 F176V limits assumed): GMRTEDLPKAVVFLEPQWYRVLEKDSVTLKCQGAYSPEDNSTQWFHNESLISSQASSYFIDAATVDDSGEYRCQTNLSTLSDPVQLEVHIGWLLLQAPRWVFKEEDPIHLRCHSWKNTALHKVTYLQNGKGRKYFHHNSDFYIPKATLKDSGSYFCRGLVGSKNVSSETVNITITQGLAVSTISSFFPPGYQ
Assay [3] addresses T1, hFcγR2B. The assay is described as follows: BLI, Bio-hFcR2B.
Experimental: (§1) To identify Fc modifications that abrogate Fc gamma receptor binding and thereby silence antibody effector functions, IgG antibodies containing one or more amino acid substitution in the Fc region were assessed in an Octet binding assay to measure their ability to bind to different Fc gamma receptors.
(§2) The binding assays were performed at 25° C. in phosphate buffered saline with (0.1% BSA, 0.02% Tween-20) using Bio-Layer Interferometry Device (ForteBio).
The target in assay [4] is T2, hFcγR3A 176V. The assay is described as follows: BLI, Bio-hFcR3A 176V.
Experimental: as §1, §2

Here are results for one molecule from US20240075157A1 (MAGENTA THERAPEUTICS, published 2024).

B1: Ab2 D265C N297Q H435A (antibody, human IgG1, kappa, N297Q)
heavy: EVQLVQSGAEVKKPGESLKISCKGSGYSFTNYWIGWVRQMPGKGLEWMAIINPRDSDTRYRPSFQGQVTISADKSISTAYLQWSSLKASDTAMYYCARHGRGYEGYEGAFDIWGQGTLVTVSSASTKGPSVFPLAPSSKSTSGGTAALGCLVKDYFPEPVTVSWNSGALTSGVHTFPAVLQSSGLYSLSSVVTVPSSSLGTQTYICNVNHKPSNTKVDKKVEPKSCDKTHTCPPCPAPELLGGPSVFLFPPKPKDTLMISRTPEVTCVVVCVSHEDPEVKFNWYVDGVEVHNAKTKPREEQYQSTYRVVSVLTVLHQDWLNGKEYKCKVSNKALPAPIEKTISKAKGQPREPQVYTLPPSRDELTKNQVSLTCLVKGFYPSDIAVEWESNGQPENNYKTTPPVLDSDGSFFLYSKLTVDKSRWQQGNVFSCSVMHEALHNAYTQKSLSLSPGK
light: not shown
notes: copies: 2 + 2
For the molecule B1, the binding result with hFcγR2B [1] and in the assay with hFcγR3A 176V [2] was “no binding (tested: 300 nM)” in each case. Moreover, the “Normalized Response” value with hFcγR2B [3] is 4 % of WT; with hFcγR3A 176V [4] it was 1 % of WT.
